In paper PMC3597700:

What was measured:
RHA dsRBD1+2 = RHA dsRBD1+2 (Homo sapiens, UniProt Q08211 1-264); test: ITC
RHA dsRBD1 [1] = target: T1, RHA dsRBD1 (Homo sapiens, UniProt Q08211 1-91); test: ITC
RHA dsRBD2 [2] = target: T2, RHA dsRBD2 (Homo sapiens, UniProt Q08211 165-264); test: ITC
RHA dsRBD2 H207A = RHA dsRBD2 H207A (Homo sapiens, UniProt Q08211 165-264, H207A); test: ITC
RHA dsRBD2 K182A = RHA dsRBD2 K182A (Homo sapiens, UniProt Q08211 165-264, K182A); test: ITC
RHA dsRBD1 N30A = RHA dsRBD1 N30A (Homo sapiens, UniProt Q08211 1-91, N30A); test: ITC
[3] = target: RHA dsRBD1 N53A/K54A/K55A (Homo sapiens, UniProt Q08211 1-91, N53A;K54A;K55A); test: ITC
[4] = target: RHA dsRBD2 N234A/K235A/K236A (Homo sapiens, UniProt Q08211 165-264, N234A;K235A;K236A); test: ITC
RHA dsRBD1 Y9A = RHA dsRBD1 Y9A (Homo sapiens, UniProt Q08211 1-91, Y9A); test: ITC
RHA dsRBD2 [5] = target: T2, RHA dsRBD2; test: crystal structure
RHA dsRBD1 [6] = target: T1, RHA dsRBD1; test: crystal structure
GST-RHA dsRBD1+2 = GST-RHA dsRBD1+2 (Homo sapiens, UniProt Q08211 1-264); test: pull-down
GST-RHA dsRBD2 = GST-RHA dsRBD2 (Homo sapiens, UniProt Q08211 165-264); test: pull-down
GST-RHA dsRBD1 = GST-RHA dsRBD1 (Homo sapiens, UniProt Q08211 1-91); test: pull-down
GST-RHA dsRBD1, sequence (Q08211 1-91): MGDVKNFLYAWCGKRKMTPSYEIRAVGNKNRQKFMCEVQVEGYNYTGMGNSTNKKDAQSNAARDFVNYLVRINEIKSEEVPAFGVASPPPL

T2 sequence (Q08211 165-264): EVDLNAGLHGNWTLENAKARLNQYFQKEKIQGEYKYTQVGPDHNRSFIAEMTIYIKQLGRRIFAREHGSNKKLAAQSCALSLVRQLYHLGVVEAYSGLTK
T1 sequence (Q08211 1-91): as the sequence (Q08211 1-91) above
RHA dsRBD1 Y9A, sequence (Q08211 1-91 Y9A): as the sequence (Q08211 1-91) above, with Y9A counted along it
GST-RHA dsRBD2, sequence (Q08211 165-264): as the sequence (Q08211 165-264) above
RHA dsRBD1 N30A, sequence (Q08211 1-91 N30A): as the sequence (Q08211 1-91) above, with N30A counted along it
RHA dsRBD1 N53A/K54A/K55A, sequence (Q08211 1-91 N53A/K54A/K55A): as the sequence (Q08211 1-91) above, with N53A, K54A, K55A counted along it
RHA dsRBD2 K182A, sequence (Q08211 165-264 K182A): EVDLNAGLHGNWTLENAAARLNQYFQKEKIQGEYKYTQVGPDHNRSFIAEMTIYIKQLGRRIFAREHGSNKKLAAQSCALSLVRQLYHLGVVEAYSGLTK
RHA dsRBD2 N234A/K235A/K236A, sequence (Q08211 165-264 N234A/K235A/K236A): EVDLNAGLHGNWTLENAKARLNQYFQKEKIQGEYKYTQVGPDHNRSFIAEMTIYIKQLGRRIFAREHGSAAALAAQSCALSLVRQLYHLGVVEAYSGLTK
RHA dsRBD2 H207A, sequence (Q08211 165-264 H207A): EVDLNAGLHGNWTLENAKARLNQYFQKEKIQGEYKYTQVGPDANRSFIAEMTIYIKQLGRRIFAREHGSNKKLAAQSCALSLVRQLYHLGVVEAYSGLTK
GST-RHA dsRBD1+2, sequence (Q08211 1-264): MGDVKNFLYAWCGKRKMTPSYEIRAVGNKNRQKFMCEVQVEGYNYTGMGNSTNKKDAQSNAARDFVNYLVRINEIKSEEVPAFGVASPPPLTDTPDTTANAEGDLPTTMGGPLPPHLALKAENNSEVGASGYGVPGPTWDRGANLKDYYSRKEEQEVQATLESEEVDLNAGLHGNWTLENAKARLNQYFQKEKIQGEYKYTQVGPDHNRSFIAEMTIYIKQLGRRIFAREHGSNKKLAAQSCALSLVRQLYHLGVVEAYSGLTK
RHA dsRBD1+2, sequence (Q08211 1-264): as above

B1: siRNA21 duplex (dsRNA)
RNA 1: AGACAGCAUUAUGCUGUCUUU
RNA 2: AGACAGCAUUAUGCUGUCUUU
modifications: 5' phosphate
Work on B1 yielded a Kd (RHA dsRBD1+2) of 0.106 µM, a Kd (RHA dsRBD1 [1]) of 5.93 µM and a Kd (RHA dsRBD2 [2]) of 13.6 µM. It also gave a Kd (RHA dsRBD2 H207A) of 291 µM, a Kd (RHA dsRBD2 K182A) of 334 µM and a Kd (RHA dsRBD1 N30A) of 14.5 µM. B1: no binding [3]; no binding [4]; no binding (RHA dsRBD1 Y9A).

B2: GC10 duplex (dsRNA)
RNA 1: GCGCGCGCGC
RNA 2: GCGCGCGCGC
B2: binds (RHA dsRBD2 [5]); binds (RHA dsRBD1 [6]).

B3: 5'-biotinylated siRNA21 duplex (dsRNA)
RNA 1: AGACAGCAUUAUGCUGUCUUU
RNA 2: AGACAGCAUUAUGCUGUCUUU
B3: binds (GST-RHA dsRBD1+2); binds (GST-RHA dsRBD2); binds (GST-RHA dsRBD1).
